These results are taken from article PMC10844826 (iScience, 2024).

Experiment [1] addresses GST-tagged Arabidopsis thaliana Rpn10 vWA domain (Arabidopsis thaliana) (UniProt P55034). In words: SPR. A general note: SPR reads the build-up and loss of mass on a sensor chip optically.
The target of experiment [2] is T1, GST-tagged Arabidopsis thaliana Rpn10 vWA domain (Arabidopsis thaliana, UniProt P55034 2-193).
T1 sequence: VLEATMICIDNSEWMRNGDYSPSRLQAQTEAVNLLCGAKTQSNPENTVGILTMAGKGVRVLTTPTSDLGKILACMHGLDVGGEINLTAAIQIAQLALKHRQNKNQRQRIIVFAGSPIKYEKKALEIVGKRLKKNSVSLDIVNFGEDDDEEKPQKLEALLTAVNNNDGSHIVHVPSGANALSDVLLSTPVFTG
In words: SPR.

Experiment [3] deals with T2, AtRpn10 vWA domain, GST removed, as in the purified complexes (Arabidopsis thaliana, UniProt P55034 2-193).
T2 sequence: T1 sequence
In words: SEC-MALS. For orientation: Size exclusion chromatography separates by hydrodynamic size, large species first.

As usually defined, the Kd is the concentration at which binding is half-saturated. A lower Kd goes with higher affinity. In the case of “onion yellows phytoplasma SAP05 (natural protein)”, the Kd in experiment [1] turned out to be 398 nM.

B1: Aster Yellows witches'-broom phytoplasma SAP05 (33-135) (natural protein, UniProt Q2NK94 33-135, looked up)
chain: APNEEFVGDMRIVNVNLSNIDILKKHETFKKYFDFTLTGPRYNGNIAEFAMIWKIKNPPLNLLGVFFDDGTRDDEDDKYILEELKQIGNGAKNMYIFWQYEQK
Turning to B1, in experiment [2], the Kd came out at 400 nM.

B2: AYWB_SAP05 (33-135), tag removed, as in the purified complex (natural protein, UniProt Q2NK94 33-135, looked up)
chain: B1 chain
A word on the stoichiometry N: it is the number of molecules, sites or subunits per partner or assembly. On to B2, for which the “stoichiometry N” value in experiment [3] was 1.
